How the values were obtained:
[1] = target: His-SpNDK H121A mutant (catalytically inactive) (Streptococcus pneumoniae); assay: mass photometry; Refeyn OneMP; 50 mM HEPES pH 7.4, 150 mM NaCl with ATP or GTP and 5 mM MgCl2, 5 min at 22°C before the analysis
[2] = target: His-SpNDK R28A mutant (Streptococcus pneumoniae); assay: SEC; Superdex 200 Increase 10/300 GL, 50 mM HEPES pH 7.4, 100 mM NaCl; concentrated sample; molecular weights from a standard curve
[3] = target: Streptococcus pneumoniae nucleoside diphosphate kinase with an N-terminal hexa-histidine tag (His-SpNDK), wild type (Streptococcus pneumoniae); assay: mass photometry; Refeyn OneMP; His-SpNDK diluted to 200 nM, 5 µL added to 15 µL of buffer; 50 mM HEPES pH 7.4, 100 mM NaCl; no nucleotide (ADP or GDP had no significant effect on the wild type)
[4] = target: Streptococcus pneumoniae nucleoside diphosphate kinase with an N-terminal hexa-histidine tag (His-SpNDK), wild type (Streptococcus pneumoniae); assay: SEC; Superdex 200 Increase 10/300 GL, 50 mM HEPES pH 7.4, 100 mM NaCl; concentrated sample; molecular weights from a standard curve

Substance: His-SpNDK H121A mutant (catalytically inactive) (enzyme)
- stoichiometry N [1]: < 6

Substance: His-SpNDK R28A mutant (enzyme)
- stoichiometry N [2]: 2

Substance: Streptococcus pneumoniae nucleoside diphosphate kinase with an N-terminal hexa-histidine tag (His-SpNDK), wild type (enzyme)
- stoichiometry N [3]: 18
- stoichiometry N [4]: 18

Reference: PMC13451967
